Blank lines part the entries; values can stand above or below the binder they belong to.
Columns and labels:
[1] = target: T1, Human GUCY2C protein on cells (HCT116/hGUCY2C, HT-55, T84, LS1034, LS174T) (human, UniProt P25092 24-1073); test: cell-based or functional assay
hGUCY2C ECD-His = target: T2, hGUCY2C ECD-His (human, UniProt P25092 24-430); test: ELISA, antigen on streptavidin plate
T2 construct: also called human GUCY2C protein
Experimental: In this test example, the binding activity of the GUCY2C-CD3 bispecific antibodies for human GUCY2C was detected by ELISA. The specific procedures are as follows:
The plate was coated by adding 100 ng of streptavidin (ACRO #STN-N5116) to the reaction wells and incubated overnight at 4° C. After the blocking with 1% BSA (PBS), 100 ng of hGUCY2C ECD-His was added, and the mixture was incubated at 37° C. for 1 h. After plate washing, the gradiently diluted antibody was added, and the mixture was incubated at 37° C. for 1 h. […] After plate washing, a substrate solution was added, and a stop solution was then added after sufficient color development to stop the reaction. The signal values at […] were read using a microplate reader.

[2] = target: T1, Human GUCY2C protein on cells …; test: flow cytometry on HCT116/hGUCY2C cells, R-PE goat anti-human IgG secondary antibody
Experimental: Experiment 1: 1E5 cells resuspended in 1% BSA were added to the reaction wells, and the supernatant was removed after centrifugation. Diluted antibody of the corresponding concentration was added, and the mixture was incubated at room temperature for 30 min and then washed twice with 1% BSA. […] After the plate was washed twice with 10% BSA, fluorescence signals were read using a flow cytometer.

B1: 81 L3H1-2 (N103QN106Q) (bispecific antibody)
heavy 1: not shown
light 1: not shown
heavy 2: EVQLVQSGAEVKKPGASVKVSCKASGYTFTDHNMNWVKQAPGQRLEWMGVMNPKFGTINYNQKFKDKATITRDTSASTAYMELSSLRSEDTAVYYCARDNYPNYFDYWGQGTTVTVSSGGGGSSGAPRFLTRPKASVVSVGKDATLSCQIVGNPFPQVSWEKDKQPVTAGVRFRLAQDGDLYRLKILDLQLSDSGQYVCRARNAHGEAFACLGLQVDAEADKTHTCPPCPAPEAAGGPSVFLFPPKPKDTLMISRTPEVTCVVVDVSHEDPEVKFNWYVDGVEVHNAKTKPREEQYNSTYRVVSVLTVLHQDWLNGKEYKCKVSNKALPAPIEKTISKAKGQPREPQVCTLPPSREEMTKNQVSLSCAVKGFYPSDIAVEWESNGQPENNYKTTPPVLDSDGSFFLVSKLTVDKSRWQQGNVFSCSVMHEALHNHYTQKSLSLSPGK
light 2: DIQLTQSPSFLSASPGDRVTITCSASSSVNYMYWYQQKPGSSPKSWIYRTSNLASGVPSRFSGSGSGTEYTLTISSLQPEDFATYYCQQYHDYPPTFGGGTKVEIKGGGGSGIPPKIECLPIDISIDEGKVLTVASAFTGEPTPEVTWSTGGRKIHSQEQGRFHIENTDDSTTLTIKDVQKQDGGLYTLTLRNEFGSDSATVNIHIRSI
- IC50 (nM), killing of LS174T with PBMC [1]: 0.16 nM

- EC50 (hGUCY2C ECD-His): 1.23 nM
- EC50 (read off the curve) [2]: ~1 nM
B2: 1608-BsAb (bispecific antibody)
chain 1: DIQLTQSPSSLSASVGDRVTITCRASESVDYYGSSLLQWYQQKPGKAPKLLIYAASKLASGVPSRFSGSGSGTDFTLTISSLQPEDFATYYCQQTRKAYTFGQGTKLEIKGGGSGGGGEVQLVESGGGLVQPGGSLRLSCAASGFTFSDYYMTWVRQAPGKGLEWVAFIRNQARGYTSDHNPSVKGRFTISRDNAKNSLYLQMNSLRAEDTAVYYCARDRPSYYVLDYWGQGTTVTVSSGCPPCPAPEAAGAPSVFLFPPKPKDTLMISRTPEVTCVVVDVSHEDPEVKFNWYVDGVEVHNAKTKPREEQYNSTYRVVSVLTVLHQDWLNGKEYKCKVSNKALPAPIEKTISKAKGQPREPQVCTLPPSREEMTKNQVSLWCLVKGFYPSDIAVEWESNGQPENNYKTTPPVLDSDGSFFLYSKLTVDKSRWQQGNVFSCSVMHEALHNHYTQKSLSLSPG
chain 2: DIQMTQSPSSLSASVGDRVTITCTSSQSLFNVRSQKNYLAWYQQKPGKAPKLLIYWASTRESGVPSRFSGSGSGTDFTLTISSLQPEDFATYYCKQSYDLFTFGGGTKVEIKGGGGSGGGGEVQLVESGGGLVQPGGSLRLSCAASGFTFSSYWMHWVRQAPGKGLEWIGEIKPSNELTNVHEKFKDRFTISVDKAKNSAYLQMNSLRAEDTAVYYCTRTITTTEGYWFFDVWGQGTLVTVSSGCPPCPAPEAAGAPSVFLFPPKPKDTLMISRTPEVTCVVVDVSHEDPEVKFNWYVDGVEVHNAKTKPREEQYNSTYRVVSVLTVLHQDWLNGKEYKCKVSNKALPAPIEKTISKAKGQPREPQVYTLPPCREEMTKNQVSLSCAVKGFYPSDIAVEWESNGQPENNYKTTPPVLDSDGSFFLVSKLTVDKSRWQQGNVFSCSVMHEALHNHYTQKSLSLSPG
